In the DeepSol protein solubility set:

test: soluble on expression in E. coli; label from the status in PepcDB or PDB records

Sequence | soluble on expression in E. coli
MGSDKIHHHHHHMIPTFVVWSQSMFNDAIVYDRYGPPAAVLTLKRLPLAPLAGGRVRVRMRFAPVNPSDLIPVTGAYRHRTRLPAVAGYEGLGEVVAAPYGSRLAAGQRVLPLRGGGTWQRFIDLDETWLVPVPPAVDDLLAARGYINPLTAMLMLKRWPVAGKHLVLTAASSSCASLLGQWALAMGARSVSGIIRSPQHRARLEQAGIYPILDTDRALMEKVSQHSDLVFDAVGGELANTLLSVLPGSSTLISYGLLSGRPLTQTRGSATVRKFHLREALPTLSVAAWRAAFDEIWQRLPTTSQPPAQRIALNDWRAAIAAAGQPGRGGKILLDFTAG | not soluble
MGHHHHHHSHMGFGSDLKNSHEAVLKLQDWELRLLETVKKFMALRIKSDKEYASTLQNLCNQVDKESTVQMNYVSNVSKSWLLMIQQTEQLSRIMKTHAEDLNSGPLHRLTMMIKDKQQVKKSYIGVHQQIEAEMIKVTKTELEKLKCSYRQLIKEMNSAKEKYKEALAKG | soluble
MGSDKIHHHHHHMNLTHRQLTMFRAIMLHGNLGRAADACASSQPTLSRELGRLEQLLGFNLFDRVRGRLRPTVRALALMQEVERSFIGLEQIAARASELRTQATGRLRIACLPALAHALVPRALVYLSHTHPELGVSVHPLESPWLEQAMSEQRFDLGLSETQKAPAGVTLQPLLKVNEVAVLPRDHSLCRKARLQPRDFTGERFISLAVGDPYRTAIDAMFEDAKVHRVTLLETTSSVAVCAMVRQGLGVAIVNPFTAMELSGPDLVVRSLTVAIGYQVNMLLPEIAAPHPLQSVLADTVRKASADLSHLDQCFY | not soluble
MSLKRISIKDVALKAGVSIASVSYVLNNKIDSRIPQETIDKVKHAAEELNYRPNNIAKSLKTQRTHIIGLVVADIANPYFSQLARIIEDEANKLGYTLMIGSSDENAEKFEALINMFADRQADGLIIAPVENSEKCLLKLQKQKIPFVLIDRYLSGVEADSIQINNYDISQKVTEHLINGGYKNTLLVAYKTQLQHLLQRTQAFLNTLEKHQIQNSQVLLADKDYIDRDINTGLENMLQNAVKPDAIFFTSNKLAVSGLKKLTQLGINIPQDIAVAAFDETEAYELFPVPLTYVKQPLSAIGTTAVKMLNEKINIKNLPLQNVTLHAELHIGQSTKSKEGHHHHHH | soluble
MGHHHHHHSHMAAPLGGMFSGQPPGPPQAPPGLPGQASLLQAAPGAPRPSSSTLVDELESSFEACFASLVSQDYVNGTDQEEIRTGVDQCIQKFLDIARQTECFFLQKRLQLSVQKPEQVIKEDVSELRNELQRKDALVQKHLTKLRHWQQVLEDINVQHKKPADIPQGSLAYLGAGICQHPCTSEANVSKGQRQLAYEWADA | not soluble
MGAAAAMLAAVLLLTPITVPAGYPGAVAPATAACPDAEVVFARGRFEPPGIGTVGNAFVSALRSKVNKNVGVYAVKYPADNQIDVGANDMSAHIQSMANSCPNTRLVPGGYSLGAAVTDVVLAVPTQMWGFTNPLPPGSDEHIAAVALFGNGSQWVGPITNFSPAYNDRTIELCHGDDPVCHPADPNTWEANWPQHLAGAYVSSGMVNQAADFVAGKLQ | not soluble
LREQVQDLFNKKYGEALGIKYPVQVPYKRIKSNPGSVIIEGLPPGIPFRKPCTFGSQNLERILAVADKIKFTVTRPFQGLIPKPDE | soluble
MGSDKIHHHHHHMELRGIWLTNVDSKILHSRDKIAEAMNFLVDTGFNVIFPVVWNKAFTLYPSQLMETTFGQEIDPLYKGRDPLAEVIIEAQRVGLKVIPWFEYGFVSSYKQNGGLILSKKPEWIARERKGNLLVKNGFEWMNALDEEVQNFLIDLVLEVVRNYDIDGIQGDDRMPAFPSEGGYDAKTVGRYRQQFSCHPPQNNKDHKWLQWRANILTDFLARLYGKVKAVKPNILVSMAPSFYKWGFNEYLQDYPTWINREVVDIVHPQLYRRDFSSYKSLVEQLVKQQFIATHLNKIFPGILIKIGSYRISMDYLLEAIAYNRSVGINGEVLFFYEGLRENNDVLAKALRKYVYN | not soluble
MQQKDAVPDTAKKLKAPLTGLKTEQKVTERRPVAVVVNNHPKARPQSGLSKADIVIEALAEGQITRFLAIFQSQMPETVGPVRSAREYFVTLSNGFDSIFVHHGWSPGAKKQLESGAADYMNGLDFDGSLFWRADFSKPPHNSYTSYDYIKKAAEQKGYKLKQETNPLLFQTSDAKPANESYNVRVDYGTNNVTNLVEYNYDKKAEFYTRSSDGVITTDRETGKPVAMQNIFIVEASHHIIDQDGRRDIDLESGGKGLLFQHGNVIETDWKQVNGRIVPVKDGKWLPFVPGKTWINIVPDLDAASISKGEGVLEHHHHHH | soluble
MAHHHHHHMCGSCWAFAAIGNIEGQWFLAGNPLTRLSEQMLVSCDNTNSGCGGGSSLKAFKWIVDRNNGAVYTEESYPYHSCIGIKLPCTTSGHTVGATITGHVELPQDEAQIAAWLAVNGPVAVVVDASSWIFYTGGVLTNCVSKKLDHAVLLVGYNDSATAPYWIIKNSWTTQWGEDGYIRIAKGSNQCLVKEEASSAVVGGPGATPEPTTTTTTSAPGPSPSCFVQMSCTDAACIVGCENVTLPTGQCLLTTSGASAIVTCGAETLTEEVFLTSTHCSGPSVRSSVPLNKCNRLLRGSVEFFRGSSSSGRLADVDRQRRYQPYHSRHRRL | soluble
MSLHLSNVILHQLCKNDQDELVVKLRPASLENDASTENLVAELHRVFHSKAGKGFGSFQSDSEFQFWLQEMRKGERDFYDFSQISANRLKEELIKYPFADEGILVFAEYQSLATDYLFIGILPMNQSLKVTEGLDISATDYLDITKMDIAARIDLSSYETDKESNRYLQYIKGRVGRKVADFFLDFLQADIGLDTKQQNLVLMQAVDDFCADSKLEKQEVNEYKKQVYNYCNEQIKSGEEVQISELSGELPPSQDGTSFMDFTKEQGYELEESFPGDRSTVRKLTKYVGAGGGLNISFDSLLLGERIFYDPETDTLTIKGTLEHHHHHH | not soluble
QTSPMTPDITGKPFVAADASNDYIKREVMIPMRDGVKLHTVIVLPKGAKNAPIVLTRTPYDASGRTERLASPHMKDLLSAGDDVFVEGGYIRVFQDVRGKYGSEGDYVMTRPLRGPLNPSEVDHATDAWDTIDWLVKNVSESNGKVGMIGSSYEGFTVVMALTNPHPALKVAVPESPMIDGWMGDDWFNYGAFRQVNFDYFTGQLSKRGKGAGIARQGHDDYSNFLQAGSAGDFAKAAGLEQLPWWHKLTEHAAYDAFWQEQALDKVMARTPLKVPTMWLQGLWDQEDMWGAIHSYAAMEPRDKRNTLNYLVMGPWRHSQVNYDGSALGALNFEGDTARQFRHDVLRPFFDQYLVDGAPKADTPPVFIYNTGENHWDRLKAWPRSCDKGCAATSKPLYLQAGGKLSFQPPVAGQAGFEEYVSDPAKPVPFVPRPVDFADRAMWTTWLVHDQRFVDGRPDVLTFVTEPLTEPLQIAGAPDVHLQASTSGSDSDWVVKLIDVYPEEMASNPKMGGYELPVSLAIFRGRYRESFSTPKPLTSNQPLAFQFGLPTANHTFQPGHRVMVQVQSSLFPLYDRNPQTYVPNIFFAKPGDYQKATQRVYVSPEQPSYISLPVR | soluble
MGSDKIHHHHHHMTIDPIKSTTLAQFDAAEQTALAQLALKVQHAFVTGAGGFLGKAICLRLLAAGIKVTGFARGHYPELEALGVVMLQGDLVNKDQLQQAMQGCDIVFHVASKAGVWGDRDSYFCPNVKGAANVIAACKTLKINKLVYTSTPSVTFAGQDESGIDESTPYATSFLNYYAHSKAIAEKMMLDANQVGDVSVENTAVTQVTQVTQATTATISDNNLATTQVAIPNTSQVTAPYALKTVALRPHLIWGPGDPHLVPRVLARCRLDKLKLVGHEDKLVDTIYIDNAAYAHVLAALELCQAKPKCQGKAYFLSNDEPITMAKMLNLILACDALPPVTKRVPQSVAYVAGAVLETVYFLLKKQEEPMMTRFVARQLSCSHYFDISAAKRDLGYRALVSINEGMARLKASL | not soluble
MIYEGKAITVTALESGIVELKFDLKGESVNKFNRLTLNELRQAVDAIKADASVKGVIVSSGKDVFIVGADITEFVENFKLPDAELIAGNLEANKIFSDFEDLNVPTVAAINGIALGGGLEMCLAADFRVMADSAKIGLPEVKLGIYPGFGGTVRLPRLIGVDNAVEWIASGKENRAEDALKVSAVDAVVTADKLGAAALDLIKRAISGELDYKAKRQPKLEKLKLNAIEQMMAFETAKGFVAGQAGPNYPAPVEAIKTIQKAANFGRDKALEVEAAGFAKLAKTSASNCLIGLFLNDQELKKKAKVYDKIAKDVKQAAVLGAGIMGGGIAYQSASKGTPILMKDINEHGIEQGLAEAAKLLVGRVDKGRMTPAKMAEVLNGIRPTLSYGDFGNVDLVVEAVVENPKVKQAVLAEVENHVREDAILASNTSTISISLLAKALKRPENFVGMHFFNPVHMMPLVEVIRGEKSSDLAVATTVAYAKKMGKNPIVVNDCPGFLVNRVLFPYFGGFAKLVSAGVDFVRIDKVMEKFGWPMGPAYLMDVVGIDTGHHGRDVMAEGFPDRMKDDRRSAIDALYEAKRLGQKNGKGFYAYEADKKGKQKKLVDSSVLEVLKPIVYEQRDVTDEDIINWMMIPLCLETVRCLEDGIVETAAEADMGLVYGIGFPLFRGGALRYIDSIGVAEFVALADQYAELGALYHPTAKLREMAKNGQSFFG | soluble
MSLSVKILFKNATVFPITSRPFKGDVLVSNGKVEKVGENIEDPDAEIVDLTGKFLFPGFVDAHSHIGLFEEGVGYYYSDGNEATDPVTPHVKALDGFNPQDPAIERALAGGVTSVMIVPGSANPVGGQGSVIKFRSIIVEECIVKDPAGLKMAFGENPKRVYGERKQTPSTRMGTAGVIRDYFTKVKNYMKKKELAQKEGKEFTETDLKMEVGEMVLRKKIPARMHAHRADDILTAIRIAEEFGFNLVIEHGTEAYKISKVLAEKKIPVVVGPLLTFRTKLELKDLTMETIAKLLKDGVLIALMCDHPVIPLEFATVQAATAMRYGAKEEDLLKILTVNPAKILGLEDRIGSIEPGKDADLVVWSGHPFDMKSVVERVYIDGVEVFRREGHHHHHH | soluble
MSLKKWFTILTFVLTAFLVTRTAIAETSPYVLMQQAADKLFSDIQANQSKIKQDPNYLRTIVRNDLLPYVNLEYAGSKVLGSYYKSTSAEQREKFFKTFGELIEQKYAQALTNYSNQKIQIESEKELGDNNFINIRVNIIQANGVAPILLYFKWRKGNKSGEWKVYDMVGAGVSMLEDTIKNWVGILNKQGIDTLITKMQQSASQPIIFNQEGGSHHHHHH | soluble
MAHHHHHHMFGTPVENLTANQIKEELRTLYGVSDFSGCIEQKDLQEKLEKTRETELITHGLKYGPLLQIGNRQSPSGIVTLTHGLGDSANGWESVAVELSRRLPHLLFLLPTASMQPVGINGGAVMNSWYDIRNVSSGNGVTEDAEAIIMSANYLKSLAYTASRRYQVPAGRVVYAGFSQGAVISLAAGLTARIAPAGVAALSGYFAAAEKILPQLCNKSLPVLLCHGTMDNIIPFSAAEKTKETLESLGVGPVTLYSYPMEHSSHPKEINDLEKFLQQVLPGPSSKS | soluble
MAHHHHHHMLRRVLSRGPLPQSLSVGPTSKLTVNKGKLAKSRGVHVHFLTIAECAAAAGDASAPIPPGFTGKAGEVDFQTLWTTAQDPATAESVLRKSGRKAAGARRAAEKPAELVAGMGAHSTVRDYRLAVTAAVRKAKMCNAAWVSLHPPKQDVFTMTDPYHPPQRLKSHEMVEKTAIFAVTGAYQYDRLKSGTLASKDSAQTGRTRARRAESRAKPPAAPQPPMELVVASSNAQAVRAGEVIGHCVNEARNLGNLREDEGVPEFYAEWAKKYMIPEGIKVRKVLRGQQLEEAGLHLMYNVGRGSRYEPYLVVLEYIGNPRSSATTAIVGKGVTFDCGGLNIKPYTSMETMHSDMMGAATAFCTLKAIAKLQLPINVVAAVGLVENAIGPESYHPSSIITSLKGLTVEVLNTDAEGRLVLADVLTYVQKYAPLDKKPTRIIDLATLTGAIIVGLGSRRAGLFSPSAMLANSLMAAGTQCGEELWPMPIGDEHKDMMKGGIADLINAAPGRQAGSCTAAAFLSNFVEPEVQWAHLDIAGVADVGDKPKGYEPAGVTGFGVQLLVDFLRHNKP | not soluble
